The supplement of paper PMC10126150
± gives the standard deviation of the averaged measurements.

Test system: ATP
Experiment: switch fluorescence ratio, 500 uM ATP over buffer (Cy3 cluster intensity, sum of 5 cycles each) (fold (ratio)); higher = stronger signal-on switching upon ATP binding; sequences stand for … in TCGTCGGCAGCGTCAGATGTGTATAAGAGACAGTTTTTTTTTTTTTTTTTTTTTTTTT…TC
Conditions: aptamer strand: ATP DNA aptamer (quencher-CACCTGGGGGAGTATTGCGGAGGAAGG + anchor), 100 nM annealed; ATP concentration: 500 uM
Procedure, shortened: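 Cy3-labelled switching-strand clusters on a modified Illumina MiSeq flow-cell were annealed to 100 nM quencher-labelled ATP aptamer, imaged in selection buffer, then imaged after 15 min with 500 uM ATP at 22 °C. Five buffer/ATP cycles ran, with NaOH stripping and re-annealing between them. The fluorescence ratio is summed target-cycle over summed buffer-cycle Cy3 intensity per cluster, averaged per switch-domain sequence. Clusters outside 100-1000 RFU were excluded.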
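Also: ATP exposure 15 min at 22 °C before imaging.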

| Sequence | switch fluorescence ratio |
| --- | --- |
| AGTGTGTGTG | 1.013 ± 0.0024 |
| AGTGTTACTG | 0.975 ± 0.044 |
| AGTGTTAGAC | 1.012 ± 0.0048 |
| AGTGTTAGTG | 0.997 ± 0.037 |
| AGTTAAAACG | 1.02 ± 0.011 |
| AGTTAAGAT | 1.01 ± 0.022 |
| AGTTAATTGA | 0.9704 ± 0.0093 |
| AGTTACCGGG | 0.998 ± 0.044 |
| AGTTACGGGC | 1.01 ± 0.017 |
| AGTTACGGTG | 1 ± 0.025 |
| AGTTAGCAGA | 0.995 ± 0.026 |
| AGTTAGGGTA | 0.9744 ± 0.0059 |
| AGTTAGTGGA | 0.9924 ± 0.00044 |
| AGTTATCCAT | 1.001 ± 0.0083 |
| AGTTATTTGA | 1 ± 0.031 |
| AGTTATTTGC | 0.997 ± 0.024 |
| AGTTCAAACC | 1.04 ± 0.062 |
| AGTTCATATA | 1.013 ± 0.0011 |
| AGTTCCCCTT | 1.052 ± 0.0024 |
| AGTTCCGGGA | 1.02 ± 0.067 |
| AGTTCCGTTT | 0.994 ± 0.022 |
| AGTTCCTTAG | 1.05 ± 0.043 |
| AGTTCGCTTT | 0.993 ± 0.028 |
| AGTTCGGATG | 1 ± 0.057 |
| AGTTCTTTGT | 0.985 ± 0.024 |

| Sequence | switch fluorescence ratio |
| --- | --- |
| AGTTGAAATA | 0.9816 ± 0.0066 |
| AGTTGAATTT | 0.9885 ± 0.0016 |
| AGTTGAGAG | 1.03 ± 0.017 |
| AGTTGAGTCT | 0.981 ± 0.067 |
| AGTTGAGTTA | 1 ± 0.011 |
| AGTTGATGGT | 0.96898 ± 0.00096 |
| AGTTGGATGC | 0.965 ± 0.068 |
| AGTTGGCTGA | 0.9967 ± 0.0063 |
| AGTTGGGAGC | 0.991 ± 0.02 |
| AGTTGGGTGG | 1.04 ± 0.026 |
| AGTTGGTAG | 1.02 ± 0.033 |
| AGTTGGTGTT | 0.958 ± 0.026 |
| AGTTGTAAAG | 0.985 ± 0.018 |
| AGTTGTCAGT | 0.983 ± 0.028 |
| AGTTGTCCAT | 0.9767 ± 0.0079 |
| AGTTGTGGTA | 1.003 ± 0.01 |
| AGTTGTGTTT | 0.966 ± 0.043 |
| AGTTGTTGG | 0.982 ± 0.011 |
| AGTTTAAAAG | 1.01 ± 0.024 |
| AGTTTACCGG | 1.01 ± 0.022 |
| AGTTTAGATG | 0.968 ± 0.02 |
| AGTTTAGGAC | 0.985 ± 0.031 |
| AGTTTATTGG | 0.999 ± 0.0086 |
| AGTTTCCTTT | 0.978 ± 0.032 |
| AGTTTCGGGT | 0.9636 ± 0.0082 |

| Sequence | switch fluorescence ratio |
| --- | --- |
| AGTTTCGGTA | 0.977 ± 0.018 |
| AGTTTCTTAT | 0.995 ± 0.028 |
| AGTTTCTTGT | 0.987 ± 0.03 |
| AGTTTGAAAT | 1.01 ± 0.03 |
| AGTTTGAGTT | 1.02 ± 0.052 |
| AGTTTGATG | 0.986 ± 0.041 |
| AGTTTGGGC | 0.9604 ± 0.0015 |
| AGTTTGGTGG | 0.942 ± 0.067 |
| AGTTTGTCCC | 1.02 ± 0.0057 |
| AGTTTGTGAC | 0.989 ± 0.029 |
| AGTTTGTGTC | 0.965 ± 0.12 |
| AGTTTGTTTT | 0.966 ± 0.049 |
| AGTTTTAGAT | 1 ± 0.044 |
| AGTTTTATTG | 0.993 ± 0.026 |
| AGTTTTCATT | 1 ± 0.049 |
| AGTTTTCTTC | 0.962 ± 0.041 |
| AGTTTTGACC | 1.03 ± 0.059 |
| AGTTTTGGAG | 1 ± 0.015 |
| AGTTTTGGTA | 1.02 ± 0.064 |
| AGTTTTGGTG | 0.985 ± 0.01 |
| AGTTTTGTGT | 0.972 ± 0.0098 |
| AGTTTTTTTG | 0.99 ± 0.017 |
| ATAAAAAACT | 0.984 ± 0.01 |
| ATAAAAAATA | 1 ± 0.025 |
| ATAAAAATAT | 1.01 ± 0.035 |

| Sequence | switch fluorescence ratio |
| --- | --- |
| ATAAAAATGG | 1.004 ± 0.0075 |
| ATAAAAATTT | 1 ± 0.024 |
| ATAAAAGGAT | 0.973 ± 0.014 |
| ATAAAATAAT | 0.977 ± 0.048 |
| ATAAACAAAG | 0.959 ± 0.015 |
| ATAAACCTTA | 1.29 ± 0.28 |
| ATAAAGAATG | 1.01 ± 0.05 |
| ATAAAGCTCT | 1.01 ± 0.019 |
| ATAAAGGGGA | 0.984 ± 0.038 |
| ATAAATTTGC | 0.968 ± 0.045 |
| ATAACAGAGG | 1.04 ± 0.013 |
| ATAACATGAC | 1.21 ± 0.0044 |
| ATAACGGAGT | 0.9902 ± 0.0087 |
| ATAACGTCGG | 0.9867 ± 0.0082 |
| ATAACGTTGA | 0.99 ± 0.017 |
| ATAAGATTGT | 0.963 ± 0.058 |
| ATAAGCTTCT | 1.09 ± 0.073 |
| ATAAGGGAGA | 1 ± 0.037 |
| ATAAGGGCCA | 1.01 ± 0.036 |
| ATAAGGGTAA | 1 ± 0.013 |
| ATAAGTCAAA | 0.99 ± 0.016 |
| ATAAGTGGTG | 0.976 ± 0.036 |
| ATAAGTTCCG | 0.996 ± 0.028 |
| ATAAGTTTTG | 0.978 ± 0.027 |
| ATAATAAGCT | 1.016 ± 0.0073 |

| Sequence | switch fluorescence ratio |
| --- | --- |
| ATAATAGAAT | 0.993 ± 0.025 |
| ATAATAGAGT | 1.02 ± 0.024 |
| ATAATAGGG | 0.9773 ± 0.0019 |
| ATAATATAGG | 0.99 ± 0.041 |
| ATAATATGTG | 0.997 ± 0.029 |
| ATAATATTTT | 1.031 ± 0.0028 |
| ATAATGGTTG | 1.04 ± 0.043 |
| ATAATTACTT | 1.01 ± 0.018 |
| ATAATTATA | 1.01 ± 0.018 |
| ATAATTTCTG | 0.99 ± 0.016 |
| ATACAAATTT | 0.995 ± 0.047 |
| ATACAAGTAT | 0.995 ± 0.025 |
| ATACACATCC | 1.06 ± 0.061 |
| ATACCGAGGA | 1.04 ± 0.051 |
| ATACGAAGGG | 0.985 ± 0.059 |
| ATACGGACGG | 1.4 ± 0.073 |
| ATACGGGGGT | 1.005 ± 0.0076 |
| ATACGTTGG | 0.9748 ± 0.0046 |
| ATACGTTTGG | 1.01 ± 0.054 |
| ATACTATGGT | 0.989 ± 0.038 |
| ATACTCAGCC | 1.14 ± 0.041 |
| ATACTGTTGA | 0.973 ± 0.013 |
| ATACTTGAAC | 1.034 ± 0.0012 |
| ATAGAAAACT | 1.4 ± 0.53 |
| ATAGAACGGG | 1.01 ± 0.025 |

| Sequence | switch fluorescence ratio |
| --- | --- |
| ATAGAACTTT | 0.9968 ± 0.0095 |
| ATAGAATAGA | 0.985 ± 0.02 |
| ATAGACAGTG | 1.02 ± 0.13 |
| ATAGACGTAT | 1.01 ± 0.011 |
| ATAGACGTTA | 1.07 ± 0.049 |
| ATAGAGAGAG | 1.02 ± 0.014 |
| ATAGAGCTTG | 0.997 ± 0.024 |
| ATAGAGGCAC | 1.09 ± 0.099 |
| ATAGAGTTAG | 0.982 ± 0.011 |
| ATAGATGCTT | 1.002 ± 0.003 |
| ATAGATGTCT | 0.992 ± 0.019 |
| ATAGATTCTC | 0.977 ± 0.025 |
| ATAGCATGTA | 0.991 ± 0.01 |
| ATAGCGAGGA | 1.05 ± 0.034 |
| ATAGCGGACA | 0.967 ± 0.033 |
| ATAGCTAGTG | 0.973 ± 0.013 |
| ATAGCTGATT | 0.983 ± 0.034 |
| ATAGCTTGAG | 1.01 ± 0.04 |
| ATAGGAACTT | 1.02 ± 0.013 |
| ATAGGAGCAG | 1.01 ± 0.048 |
| ATAGGAGTCG | 1 ± 0.02 |
| ATAGGAGTTA | 0.9814 ± 0.0071 |
| ATAGGAGTTC | 1.03 ± 0.023 |
| ATAGGATTGC | 0.982 ± 0.011 |
| ATAGGATTTG | 1.032 ± 0.0096 |

| Sequence | switch fluorescence ratio |
| --- | --- |
| ATAGGATTTT | 0.985 ± 0.034 |
| ATAGGCACGG | 1 ± 0.04 |
| ATAGGCCGTA | 1.03 ± 0.045 |
| ATAGGCGCGG | 1.01 ± 0.02 |
| ATAGGCGGAA | 1.02 ± 0.036 |
| ATAGGGAATT | 1 ± 0.024 |
| ATAGGGGAAT | 0.9872 ± 0.0072 |
| ATAGGGGATT | 1 ± 0.038 |
| ATAGGGGGAG | 1 ± 0.033 |
| ATAGGGGGCT | 0.9892 ± 0.0096 |
| ATAGGGGGTT | 0.98 ± 0.022 |
| ATAGGGGTTT | 1.013 ± 0.0055 |
| ATAGGGTATA | 0.981 ± 0.055 |
| ATAGGGTGTG | 1.02 ± 0.076 |
| ATAGGTGTTG | 1.02 ± 0.025 |
| ATAGTACGCG | 0.992 ± 0.03 |
| ATAGTAGTCA | 1.01 ± 0.024 |
| ATAGTCAAAG | 0.998 ± 0.034 |
| ATAGTGACGT | 0.9826 ± 0.0075 |
| ATAGTGATAC | 3.28 ± 0.057 |
| ATAGTGGTGA | 1.03 ± 0.048 |
| ATAGTGTGGT | 0.986 ± 0.083 |
| ATAGTGTTGG | 0.986 ± 0.029 |
| ATAGTTATGT | 1.0153 ± 0.00095 |
| ATAGTTATTG | 1.01 ± 0.022 |

| Sequence | switch fluorescence ratio |
| --- | --- |
| ATAGTTCCAG | 1.002 ± 0.0087 |
| ATAGTTCCAT | 0.9783 ± 0.005 |
| ATAGTTCTAA | 0.9939 ± 0.0048 |
| ATAGTTCTAC | 0.987 ± 0.0074 |
| ATAGTTGGAT | 0.98 ± 0.011 |
| ATAGTTTGAC | 1.008 ± 0.0015 |
| ATATAAAAAA | 1.01 ± 0.026 |
| ATATAAGAAA | 1.03 ± 0.041 |
| ATATAAGAGC | 1.03 ± 0.02 |
| ATATAATAGG | 0.9778 ± 0.0022 |
| ATATACTATG | 1.05 ± 0.026 |
| ATATAGACGG | 0.975 ± 0.024 |
| ATATAGATTG | 1.03 ± 0.038 |
| ATATAGGCTA | 0.995 ± 0.011 |
| ATATAGGGGA | 1.02 ± 0.051 |
| ATATAGTGTA | 0.99 ± 0.029 |
| ATATATAAAT | 0.978 ± 0.033 |
| ATATATGCAG | 0.986 ± 0.018 |
| ATATATGGGG | 0.987 ± 0.045 |
| ATATCCCTGT | 1.009 ± 0.0049 |
| ATATCGAGGC | 0.9803 ± 0.0089 |
| ATATCGAGTT | 0.9894 ± 0.00022 |
| ATATCGGCGT | 1.55 ± 0.82 |
| ATATCTAGCC | 0.9611 ± 0.0042 |
| ATATCTTATG | 0.964 ± 0.023 |
